We go through one substance from patent US6280955.

The assay addresses IL-1RI (cell surface IL-1 receptor) (Homo sapiens (Human)) (UniProt P14778).

In turn, “epitope-tagged IL-1RAcP (amino-terminal FLAG fusion, full length, transiently expressed from pFlag-CMV-1) (receptor)” returned an NF-κB-dependent luciferase reporter gene in 293 cells, ligand-independent of 20 fold.
